These results are taken from PMC10965980.

The experiment concerns the target mGluR1 (UniProt P97772). Briefly: anti-Homer1 IP, mGluR1 western blot. To be noted: reference: wild-type Homer1; sites S117. (In general: In western blotting, separated proteins are transferred to a membrane and probed.)

“Homer1 (from UniProt Q9Z2Y3) Homer1 S117A”: the “binding against the reference” value is given as “stronger”.
